Test [1] deals with T1, mouse Ang2 (Accession # NP-031452) (R&D Systems) (mouse, UniProt O35608 19-496).
T1 construct: Bought protein coated on the ELISA plate; also called mAng2
T1 sequence (looked up): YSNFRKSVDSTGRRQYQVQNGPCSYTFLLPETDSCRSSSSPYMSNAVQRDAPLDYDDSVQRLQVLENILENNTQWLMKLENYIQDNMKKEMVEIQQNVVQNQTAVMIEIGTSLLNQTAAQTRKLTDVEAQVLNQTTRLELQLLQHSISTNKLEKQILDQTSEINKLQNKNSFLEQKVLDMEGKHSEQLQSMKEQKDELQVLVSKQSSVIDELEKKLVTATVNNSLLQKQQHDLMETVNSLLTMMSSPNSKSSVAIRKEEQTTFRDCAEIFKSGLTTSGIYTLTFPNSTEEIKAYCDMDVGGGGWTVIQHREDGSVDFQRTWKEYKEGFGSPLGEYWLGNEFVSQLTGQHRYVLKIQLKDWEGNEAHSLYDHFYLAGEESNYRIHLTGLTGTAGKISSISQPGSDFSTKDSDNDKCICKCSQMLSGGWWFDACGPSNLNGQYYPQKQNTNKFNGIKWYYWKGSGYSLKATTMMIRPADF
In words: ELISA on coated mouse Ang2; 50% binding concentration, which the filing calls Kd. The procedure:
An ELISA was conducted to measure the binding affinity of the antibodies prepared in Example 2 to mouse Ang2(mAng2). MaxiSorp™ flat-bottom plate (Nunc) of 96-well was coated with 5-20 μg/ml of mouse Ang2 (Mouse Ang2; Accession # NP_{—}031452) (R&D Systems). Thereafter, the plate was washed five times with 0.05% (v/v) Tween-20-containing PBS (PBST) and then blocked with 1% (v/v) BSA (bovine serum albumin; Sigma)-containing PBS at a room temperature for 2 hour. Each of the anti-Ang2 antibodies was added to each well of the plate at various concentrations, and the plate was allowed to react at a room temperature for 2 hours.
Thereafter, the plate was washed five times with PBST. Then, a HRP-conjugated anti-mouse IgG antibody (Santacruz) diluted in 1% (v/v) BSA-containing PBS at a ratio of 1:1,000 (v/v) was added in an amount of 50 μl to each well to react at a room temperature for 1 hour and then, the plate was washed five times with PBST. Lastly, 100 μl of TMB substrate (Cell Signaling) was added to each well of the plate to induce color development for 3 min. and then, the reaction was ceased by the addition of 100 μl of Stop solution (Cell Signaling) and OD450 values were measured on a plate reader (Molecular Devices).
From the obtained results, 50% binding concentration (Kd) of the anti-Ang2 antibody to Ang2 protein is obtained, thereby measuring the binding intensity of each of the anti-Ang2 antibodies to Ang2.
(In general: In an ELISA, binding on a coated surface is turned into a signal by an enzyme label.)

The target of test [2] is T2, Ang2 RBD mutant N421 (human, UniProt O15123 276-496).
T2 chain: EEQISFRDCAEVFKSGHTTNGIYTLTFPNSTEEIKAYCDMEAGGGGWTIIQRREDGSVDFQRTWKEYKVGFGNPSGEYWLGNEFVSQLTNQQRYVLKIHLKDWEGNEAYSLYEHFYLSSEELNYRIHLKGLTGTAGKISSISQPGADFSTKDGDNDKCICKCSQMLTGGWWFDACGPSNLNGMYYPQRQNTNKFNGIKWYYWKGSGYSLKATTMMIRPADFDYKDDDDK
In words: ELISA; antibody coated, FLAG-tagged RBD mutant, anti-FLAG-HRP detection.

The target of test [3] is T3, Ang2 RBD mutant Y460 (human, UniProt O15123 276-496).
T3 chain: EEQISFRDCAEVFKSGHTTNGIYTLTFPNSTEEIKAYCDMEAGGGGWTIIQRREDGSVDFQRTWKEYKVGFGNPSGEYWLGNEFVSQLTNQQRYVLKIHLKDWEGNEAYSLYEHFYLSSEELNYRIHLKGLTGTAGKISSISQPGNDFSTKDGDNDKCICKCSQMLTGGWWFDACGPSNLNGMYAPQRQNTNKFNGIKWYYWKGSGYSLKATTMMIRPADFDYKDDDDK
The description is as above.

The target in test [4] is T4, Ang2 RBD mutant Q418 (human, UniProt O15123 276-496).
T4 chain: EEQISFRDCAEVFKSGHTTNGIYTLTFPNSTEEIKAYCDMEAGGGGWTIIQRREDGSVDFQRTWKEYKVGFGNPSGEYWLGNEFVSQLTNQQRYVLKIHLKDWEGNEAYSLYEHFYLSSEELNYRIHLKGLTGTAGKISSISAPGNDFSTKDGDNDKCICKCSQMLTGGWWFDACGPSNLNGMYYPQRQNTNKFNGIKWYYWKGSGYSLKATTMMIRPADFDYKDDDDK
The test is described as above.

Test [5] concerns the target T5, Ang2 RBD mutant I434 (human, UniProt O15123 276-496).
T5 chain: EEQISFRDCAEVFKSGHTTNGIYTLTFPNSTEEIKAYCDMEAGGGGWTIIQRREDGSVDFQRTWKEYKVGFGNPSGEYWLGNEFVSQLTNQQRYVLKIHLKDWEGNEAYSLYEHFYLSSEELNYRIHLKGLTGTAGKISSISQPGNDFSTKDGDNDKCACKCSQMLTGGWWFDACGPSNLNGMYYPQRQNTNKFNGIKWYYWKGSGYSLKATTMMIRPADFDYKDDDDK
The test is described as above.

The target in test [6] is T6, Ang2 RBD mutant P452 (human, UniProt O15123 276-496).
T6 chain: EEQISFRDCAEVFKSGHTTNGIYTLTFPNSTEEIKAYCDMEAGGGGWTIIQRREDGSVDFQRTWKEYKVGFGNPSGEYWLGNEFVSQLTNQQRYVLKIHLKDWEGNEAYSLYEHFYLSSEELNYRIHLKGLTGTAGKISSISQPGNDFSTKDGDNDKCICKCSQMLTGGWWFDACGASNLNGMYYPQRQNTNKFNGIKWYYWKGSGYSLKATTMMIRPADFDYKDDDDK
The test is described as above.

B1: SAIT-ANG2-AB-m3E2 (antibody, V domains shown)
VH: EVQLQQSGAELVKPGASVKLSCTASGFNIKDPYIHWVKQRPEQGLEWIGRIDPANGNTKYDPKFQGKATITADTSSNTAYLQLSSLTSEDTAVYYCVRRWDGGGFDYWGQGTSVTVSS
VL: DIQMTQTTSSLSASLGDRVTISCRASQDISNYLNWYQQKPDGTVKLLIYYTSRLHSGVPSRFSGSGSGTDYSLTITNLEQEDIATYFCQQGNTLPWTFGGGTKLEIK
notes: also called hybridoma KCLRF-BP-00305
By Kd is commonly meant the equilibrium constant for the complex coming apart. Lower therefore signals a tighter complex. With B1, the dissociation constant (Kd) in test [1] was found to be 130 nM.

B2: SAIT-ANG2-AB-m1A10 (antibody, V domains shown)
VH: QVQLQQSGAELMKPGASVKISCKATDYTFSSYWLEWLIQRPGHGLEWIGEILPGSGSTNYNEKFRGKATFTEDTSSNTAYMQLSSLTSEDSAVYYCARGNHNSYYYAMDYWGQGTSVTVSS
VL: DIVLTQSPASLAVSLGQRATISCRASESVDSYGNSFMHWYQQKPGQPPKLLIYRASNLDSGIPARFSGSGSRTDFTLTINPVEADDVATYYCQQSNEDPLTFGAGTKLELK
notes: also called hybridoma KCLRF-BP-00306
Take B2: the “Binding (%) (mutant Ang2 / native Ang2)” value was 89.3% in test [2]; 8.3% in test [3]; 97.2% in test [4]; 93.2% in test [5]; 105% in test [6].

B3: SAIT-ANG2-AB-m8D3 (antibody, V domains shown)
VH: EVQLQQSGPELVKPGDSVKMSCKASGYTFTDYYMKWVRQSHGKSLQWVGEINPKNGDTFYNQIFKGKATLTVDKSSSTAYMQLTSLTSEDSAVYYCTRENDYDVGFFDYWGQGTSVTVSS
VL: TIVMTQTPKFLLVSAGDRITITCKASQSVSNDVAWYQQKPGQSPKLLIYYASNRYPGVPDRFTGSGYGTDFTFTISTVQAEDLAVYFCQQDYTSPWTFGGGTELEIK
notes: also called hybridoma KCLRF-BP-00308
On to B3, for which the Kd in test [1] stood at 141 nM.

These data come from patent US20150210761A1 (SAMSUNG ELECTRONICS, published 2015).
